Data from article doi:10.1101/2022.06.28.497981.

Assays:
[1] = molecular target: batCOV5-M, trypsin-treated stable core as crystallized (batCOV5-M_(xtal)) (Pipistrellus bat coronavirus HKU5) (UniProt A3EXD6); test: crystal structure
[2] = molecular target: batCOV5-MCTD-GFP as crystallized (Pipistrellus bat coronavirus HKU5) (UniProt A3EXD6); test: crystal structure

Substance	stoichiometry N [1]	stoichiometry N [2]
batCOV5-M, trypsin-treated stable core as crystallized (batCOV5-M_(xtal)) (from UniProt A3EXD6 1-220) (natural protein)	2	–
batCOV5-MCTD-GFP as crystallized (from UniProt A3EXD6 115-203) (domain or fragment)	–	4
